The text below walks through data of paper PMC8163762, “Impact of DNA methylation on 3D genome structure”.

The data set deals with T1, Ume6p (Saccharomyces cerevisiae, UniProt P39001 1-836).
T1 sequence: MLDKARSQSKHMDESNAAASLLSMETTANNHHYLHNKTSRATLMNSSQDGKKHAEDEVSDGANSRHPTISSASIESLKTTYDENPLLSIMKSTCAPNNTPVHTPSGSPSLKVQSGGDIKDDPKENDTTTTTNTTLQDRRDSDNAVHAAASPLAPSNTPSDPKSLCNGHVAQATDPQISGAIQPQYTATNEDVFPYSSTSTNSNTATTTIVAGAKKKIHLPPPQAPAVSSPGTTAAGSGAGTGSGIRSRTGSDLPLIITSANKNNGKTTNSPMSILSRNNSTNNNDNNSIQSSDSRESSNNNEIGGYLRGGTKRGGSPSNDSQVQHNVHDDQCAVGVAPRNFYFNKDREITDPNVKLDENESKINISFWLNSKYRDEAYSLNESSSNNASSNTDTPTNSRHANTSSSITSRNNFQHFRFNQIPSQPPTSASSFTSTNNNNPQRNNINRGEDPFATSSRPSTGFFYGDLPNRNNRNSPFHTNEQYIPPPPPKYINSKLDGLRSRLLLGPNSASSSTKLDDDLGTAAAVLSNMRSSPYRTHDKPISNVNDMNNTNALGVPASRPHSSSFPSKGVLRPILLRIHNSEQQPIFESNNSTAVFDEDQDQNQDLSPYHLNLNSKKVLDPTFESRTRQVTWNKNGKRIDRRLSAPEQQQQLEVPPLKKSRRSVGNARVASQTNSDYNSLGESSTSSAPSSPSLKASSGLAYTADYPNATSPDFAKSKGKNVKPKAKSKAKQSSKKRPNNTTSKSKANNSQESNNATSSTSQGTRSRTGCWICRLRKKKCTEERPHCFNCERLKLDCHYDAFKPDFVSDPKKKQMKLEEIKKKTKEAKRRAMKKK
Kind of data set: EMSA; EMSA buffer and temperature not given in material; protein dialyzed in 10 mM sodium phosphate pH 7.4, 50 mM NaCl, 10 uM ZnCl2. As to conditions: protein: recombinant; tags: N-terminal 6xHis (pET14b); label: Cy5 on forward oligo.

B1: SPO13 URS1 probe, unmethylated (Spo13-Cy5-F/Spo13-R) (dsDNA)
DNA 1: TTAATTAGGAGTATATTGAGAAATAGCCGCCGACAAAAAGGAAGTCTCATAAAAGT
DNA 2: ACTTTTATGAGACTTCCTTTTTGTCGGCGGCTATTTCTCAATATACTCCTAATTAA
Turning to B1, the binding result is recorded as “binds”.
